# Reference: the supplement of paper PMC9170038
# What was measured:
# MS2 coat protein [1] = test: apparent KD of MS2 coat protein, switch ON state; designed switch direction (-1 OFF switch, 1 ON switch): -1; higher = weaker reporter binding; details: FMN input: 0 or 200 uM; Eterna round: R93 (includes R88 designs)
# How it was run: (§1)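 Designed RNA switches were transcribed on-chip from Illumina sequencing clusters. SNAP-549-labelled MS2 coat protein was titrated onto them in twofold steps from 0.7 or 1.5 nM to 3 µM in 100 mM Tris-HCl pH 7.5, 80 mM KCl, 4 mM MgCl2, either without or with constant ligand. Apparent KD reflects the per-design median of normalised cluster binding-curve fits.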
# MS2 coat protein [2] = test: apparent KD of MS2 coat protein, switch OFF state (with FMN for OFF switches, without FMN for ON switches); designed switch direction (-1 OFF switch, 1 ON switch): -1; higher = weaker reporter binding; details: FMN input: 0 or 200 uM; Eterna round: R93 (includes R88 designs)
# How it was run: as §1
Sequence,apparent KD of MS2 coat protein (MS2 coat protein [1]),apparent KD of MS2 coat protein (MS2 coat protein [2])
AAGAAGUAAGGAUAUGCUGCUCGUCACAAAAGUGAUGAGUAGCAGAAGGUACAUGAGGAUCACCCAUGUAAAGA [JL eternac mod 3],0.026 µM,0.0203 µM
AAGAAGUCAGGAUAUCGAAGACUGUCGAAAAGACAGUCGAACGAGAAGGGACAUGAGGAUCACCCAUGUGGAAG [Mat - Exaclusion 4 - Eli mod - D72],0.0992 µM,0.321 µM
AAGAAGUCAGGAUAUGCCAGAGAUCACGAAAGUGAUGAGUAGCAGAAGGGACAUGAGGAUCACCCAUGUAAAGA [Opal 6],0.0482 µM,0.0465 µM
AAGAAGUCAGGAUAUGGAAAAGAAAAGAAAAGAAAAGAAAACCAGAAGGGACAUGAGGAUCACCCAUGUAAGAA [Xerxes I the Great],0.0445 µM,0.0281 µM
AAGAAGUGAGGAUAUACAUGAGGAUCACCCAUGUAAAAGAAAGAAAGGGAAAAGAAAAGUAGAAGGCGCAAGAA [Aakheperre Shoshenq V],0.0341 µM,0.0447 µM
AAGAAGUGAGGAUAUCGAAGACUGUCGAAAAGACAGUCGAACGAGAAGGCACAUGAGGAUCACCCAUGUAAGAA [Marsupial],0.0344 µM,0.045 µM
AAGAAGUGAGGAUAUCGAAGACUGUCGAAAAGACAGUCGAACGAGAAGGCACAUGAGGAUCACCCAUGUGAAAA [Marsurpial 65% 4],0.0221 µM,0.0331 µM
AAGAAGUUAGGAUAUGCUGCUCGUCACAAAAGUGAUGAGUAGCAGAAGGGACAUGAGGAUCACCCAUGUAAAGA [JL eternac mod 5],0.0367 µM,0.0241 µM
AAGAAUCGAGGAUAUACAUGAAAGAAAGAAAAGAAAAGAAAACAUGAGGAUCACCCAUGUAGAAGGCGAUAGAA [EteRNA is fun!],0.0213 µM,0.0287 µM
AAGAAUGCAGGAUAUACAAAAUAAAAGAAAAGAAAGAAAGAACAUGAGGAUCACCCAUGUAGAAGGGCGAAGAA [Sewadjkare Hori],0.0444 µM,0.0344 µM
AAGAAUGCAGGAUAUACAUGAGGAUCACCCAUGUAAAAGAAAGAAGGGAAAGAGAAAAGUAGAAGGGCAAAGAA [Bakare Tantamani],0.036 µM,0.0472 µM
AAGAAUGGAGGAUAUACAAAAUAAAAGAAAAGAAAGAAAGAACAUGAGGAUCACCCAUGUAGAAGGCCGAAGAA [Mersekhemre Ined],0.0146 µM,0.0373 µM
AAGAAUGGAGGAUAUACAUGAGGAUCACCCAUGUAAAAGAAAGAAAGGGAAAAGAAAAGUAGAAGGCCAAAGAA [Hedjkheperre Harsiese],0.0466 µM,0.0421 µM
AAGAAUUGAGGAUAUACAAGGAAGAAAGAAAAGAAAAGAAAACAUGAGGAUCACCCAUGUAGAAGGCAAUAGAA [EteRNA is fun!],0.0235 µM,0.0125 µM
AAGACUAGAGGAUAUACAUGAGGAUCACCCAUGUAACUGUCAGAAAACUGACGGAGAAGUAGAAGGCUAGUCAA [Mat - Exclusion 3 - JL mod - D86],0.0169 µM,0.0212 µM
AAGACUAGAGGAUAUACAUGAGGAUCACCCAUGUAACUGUCAGGUGACUGACGGAGAAGUAGAAGGCUAGUCAA [Mat - Exclusion 3 - JL mod - D83],0.0146 µM,0.0199 µM
AAGACUAGAGGAUAUACAUGAGGAUCACCCAUGUAACUGUCAGGUGACUGACGGAGAUGUAGAAGGCUAGUCAA [Wider Swing],0.0172 µM,0.0412 µM
AAGAGGCGAGGAUAUACAUGAGGAUCACCCAUGUAAUCCGGAUAAGGAAGCAUGUCGUGUAGAAGGUGCCAUGA [water's exclusion 3 last],0.0192 µM,0.0202 µM
AAGAGUACAGGAUAUACAUGAGGAUCACCCAUGUGAAAAUUAAGUGGCGUACAACAAAGUAGAAGGGUACUGGA [Ruby 51],0.022 µM,0.0417 µM
AAGAUGUCAGGAUAUGUGUAAAGAAUAAAAGAAAUAACAACACAGAAGGGACAUGAGGAUCACCCAUGUCAACA [May 34],0.0269 µM,0.0198 µM
AAGCUGGUAGGAUAUACUAGGGCAACUAAUGAGCCGAUAGGACAUGAGGAUCACCCAUGUAGAAGGGCCAGAAA [Mat - Exclusion 2 - JL mod - D64],0.0744 µM,0.125 µM
AAGGGACAUGAGGAUCACCCAUGUCAGGAUAUCGGAAAAGGAAAAAUAAAAAAGAAGACGAGAAGGGACACCAA [Mat - Exclusion 1 - Eli mod - D77],0.0384 µM,0.0324 µM
"AAGGGACAUGAGGAUCACCCAUGUCAGGAUAUGAUGCGAAUAAAGAAAGAAGAAAGCAUCAGAAGGGACACCAA [58%, Disencluded 3, 4]",0.0244 µM,0.0337 µM

Sequence,apparent KD of MS2 coat protein (MS2 coat protein [1]),apparent KD of MS2 coat protein (MS2 coat protein [2])
AAGGGACAUGAGGAUCACCCAUGUCAGGAUAUGAUGCGAAUAAAGAAAGAAUAAAGCAUCAGAAGGGACAAAAA [Mat - Exclusion 1 - Eli mod - D63],0.0356 µM,0.0557 µM
"AAGGGACAUGAGGAUCACCCAUGUUAGGAUAUGCAAACAACAAACAACAAACAACAAAGCAGAAGGGACAAAAA [63%, Olong, 6]",0.0305 µM,0.0288 µM
AAGUAACAUGAGGAUCACCCAUGUGAGGAUAUGAUUUAAGUUGUAAAAGUAAUAAAGGUCAGAAGGUAUGUGAA [Exclusion 1.2],0.0309 µM,0.0347 µM
AAGUAGGUAGGAUAUGCAUAGAUAUAUAUUCAUGUGGAACUACAUGAGGAUCACCCAUGUAGAAGGACCUAAUA [AJ 42],0.0181 µM,0.0171 µM
AAUAAACAUGAGGAUCACCCAUGUCAGGAUAUCCUAAAUAAAAAAAUAUAAAGAAGAAGGAGAAGGGACUAAAA [Mystem Exclusion 1],0.0472 µM,0.0535 µM
AAUAAACAUGAGGAUCACCCAUGUGAGGAUAUGGUAUAAUUAGGACAGUAAUGAUAAACCAGAAGGCACAAAUA [JR_Exc001_Sub1103],0.0356 µM,0.0426 µM
AAUAACAGAGGAUAUACGAAAAUAAGCGGAAACGCAAAGGGACAUGAGGAUCACCCAUGUAGAAGGCUGGAUAA [Tetraloop... 61% 2],0.0283 µM,0.148 µM
AAUAACUGAGGAUAUACUAAAGAAAUGAAAAGAAAUAAAGAACAUGAGGAUCACCCAUGUAGAAGGCAGAAUAA [Nuya],0.032 µM,0.0306 µM
AAUAAGACAGGAUAUACGAAAAUAAGCGGAAACGCAAAGGGACAUGAGGAUCACCCAUGUAGAAGGGUCGAUAA [Tetraloop... 61% 3],0.0802 µM,0.19 µM
AAUAAGAGAGGAUAUACUAAAGAAAUGAAAAGAAAUAAAGAACAUGAGGAUCACCCAUGUAGAAGGCUCAAUAA [Bebnum],0.0244 µM,0.0246 µM
AAUAUCGGAGGAUAUGCAUAGAUAAAGAAUUAUGUUAAAACACAUGAGGAUCACCCAUGUAGAAGGCCGAUAAA [AJ 8],0.0222 µM,0.088 µM
AAUUCACAUGAGGAUCACCCAUGUAAGGAUAUCGAAAUAAAACUAAACAAAAAACAAACGAGAAGGUACAAAAA [Exclusion 1 design 6],0.025 µM,0.0233 µM
ACAAACCGAGGAUAUACAUGAGGAUCACCCAUGUAGACGAACACAUGCGUCAUCACCAGUAGAAGGUGGAAAAC [Telaandi],0.0299 µM,0.0263 µM
ACAAGAUCAGGAUAUACAUGAGGAUCACCCAUGUAUAAAAAAAAAGGGCCUUCUACAUGUAGAAGGGAUCUUGU [EX3 290: Random 26],0.0143 µM,0.0199 µM
ACAUGACAUGAGGAUCACCCAUGUGAGGAUAUGCGAAAAAAAAAAAAAAAAAAAAUUGGCAGAAGGCACAAAAU [Jean Baudrillard],0.202 µM,0.153 µM
ACCGAUCGAGGAUAUACAUGAGGAUCACCCAUGUAAAGCAGAAGAAAGGCCUCAGGAUGUAGAAGGCGACGCAA [JR_Exc003_Sub405],0.0201 µM,0.0283 µM
ACGUAGUCAGGAUAUACGAACAUGUCAAAAGACGUGAAGGGACAUGAGGAUCACCCAUGUAGAAGGGACUACGA [Mat - Exclusion 2 - JL mod - D5],0.0431 µM,0.129 µM
ACUAAUGAAGGAUAUACAAACAACAAACACUCAACACACACACAUGAGGAUCACCCAUGUAGAAGGUCAAACAU [JR_Exc002_Sub1204],0.0192 µM,0.0182 µM
AGAAAACAUGAGGAUCACCCAUGUGAGGAUAUCGAUGUCCAAGACCUGGUGCGGGACUCGAGAAGGCACUGGGA [salish99-ex1-92],0.0414 µM,0.0448 µM
AGAAAACAUGAGGAUCACCCAUGUGAGGAUAUGCGAAAAGAAAGAAAAUAAAAUAAAAGCAGAAGGUACAAAUA,0.0299 µM,0.0313 µM
AGAAACCUAGGAUAUACAUGAGGAUCACCCAUGUAAAGAAAGAGGAGAGCCACAAGAAGUAGAAGGAGGAAGAA [JR_Exc003_Sub006],0.0227 µM,0.0349 µM
AGAAAGUCAGGAUAUACAGAUAAAAAAACGAAAAAAAAUCUGUAGAAGGGACAUGAGGAUCACCCAUGUAAAGA [Mat - Exclusion 4 - Mayanna - D102],0.0494 µM,0.0392 µM
